Test results published in publication PMC6776259 (PLoS Pathogens, 2019).

Target: the molecule itself
Assay: split reporter (BiFC, NanoBiT)

B1: WSN FluPol heterotrimer in cells infected with recombinant WSN viruses expressing PB1-Gluc1 and PB1-Gluc2 (complex)
chain 1: MDVNPTLLFLKVPAQNAISTTFPYTGDPPYSHGTGTGYTMDTVNRTHQYSERGRWTTNTETGAPQLNPIDGPLPEDNEPSGYAQTDCVLEAMAFLEESHPGIFETSCLETMEVVQQTRVDKLTQGRQTYDWTLNRNQPAATALANTIEVFRSNGLTANESGRLIDFLKDVMESMNKEEMEITTHFQRKRRVRDNMTKKMVTQRTIGKRKQRLNKRSYLIRALTLNTMTKDAERGKLKRRAIATPGMQIRGFVYFVETLARSICEKLEQSGLPVGGNEKKAKLANVVRKMMTNSQDTEISFTITGDNTKWNENQNPRMFLAMITYITRNQPEWFRNVLSIAPIMFSNKMARLGKGYMFESKSMKIRTQIPAEMLASIDLKYFNDSTRKKIEKIRPLLIDGTASLSPGMMMGMFNMLSTVLGVSILNLGQKRHTKTTYWWDGLQSSDDFALIVNAPNHEGIQAGVNRFYRTCKLLGINMSKKKSYINRTGTFEFTSFFYRYGFVANFSMELPSFGVSGINESADMSIGVTVIKNNMINNDLGPATAQMALQLFIKDYRYTYRCHRGDTQIQTRRSFEIKKLWEQTHSKAGLLVSDGGPNLYNIRNLHIPEVCLKWELMDEDYQGRLCNPLNPFVNHKDIESVNNAVIMPAHGPAKNMEYDAVATTHSWIPKRNRSILNTSQRGILEDEQMYQKCCNLFEKFFPSSSYRRPVGISSMVEAMVSRARIDARIDFESGRIKKEEFTEIMKICSTIEELRRQK
chain 2: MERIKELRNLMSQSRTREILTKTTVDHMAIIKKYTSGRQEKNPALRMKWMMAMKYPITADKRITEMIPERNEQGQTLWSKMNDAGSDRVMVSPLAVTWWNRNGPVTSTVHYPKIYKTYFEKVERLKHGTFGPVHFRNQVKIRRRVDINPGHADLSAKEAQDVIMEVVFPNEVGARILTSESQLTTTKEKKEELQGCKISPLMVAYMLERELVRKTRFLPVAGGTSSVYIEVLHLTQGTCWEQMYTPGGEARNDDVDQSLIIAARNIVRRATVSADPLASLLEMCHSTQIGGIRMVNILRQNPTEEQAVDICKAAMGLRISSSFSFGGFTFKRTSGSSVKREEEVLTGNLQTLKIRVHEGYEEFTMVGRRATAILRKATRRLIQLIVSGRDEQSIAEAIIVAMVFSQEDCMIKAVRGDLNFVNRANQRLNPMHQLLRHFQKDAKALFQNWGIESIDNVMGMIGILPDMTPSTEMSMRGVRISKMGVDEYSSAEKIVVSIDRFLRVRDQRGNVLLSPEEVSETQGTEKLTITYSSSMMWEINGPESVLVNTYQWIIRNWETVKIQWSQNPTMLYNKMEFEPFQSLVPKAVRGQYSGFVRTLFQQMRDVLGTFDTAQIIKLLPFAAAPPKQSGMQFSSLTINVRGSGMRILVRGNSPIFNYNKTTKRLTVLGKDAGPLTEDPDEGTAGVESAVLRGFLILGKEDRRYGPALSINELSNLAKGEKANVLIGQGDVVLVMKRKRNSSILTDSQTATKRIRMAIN
chain 3: […]
notes: copies: + +
- luciferase activity, fold over background: > 1000 fold over background
